Some targets named below: HLA-A*03:01; HLA-A*11:01; HLA-A*31:01; HLA-A*33:01; HLA-A*68:01.
Common to all, as to test: IEDB peptide-MHC binding, purified MHC/competitive/radioactivity; filed as Kd, often an IC50 or EC50 that approximates it; ≥ and ≤ were set here for values at or beyond the usual limits of such assays
Where [1] appears, read: source organism: SARS coronavirus Tor2.
Setting [2] is: source organism: Vaccinia virus WR.
Setting [3] is: source organism: Lassa virus Josiah.
[4] abbreviates: source organism: Mammarenavirus lassaense.

Where only a bound is given, the exact number is not on record here.

On to ASLPYGANK, for which the Kd with HLA-A*03:01 (setting [1]) is 0.177 µM; with HLA-A*11:01 (setting [1]) it was 0.111 µM; in the assay with HLA-A*31:01 (setting [1]), 0.514 µM; with HLA-A*33:01 (setting [1]) it was ≥ 52.2 µM; with HLA-A*68:01 (setting [1]) it was 16.5 µM.
CFPSTQRDY: the Kd with HLA-A*03:01 (setting [2]) is 0.868 µM; with HLA-A*11:01 (setting [2]) it was 2.51 µM; in the assay with HLA-A*31:01 (setting [2]), 9.81 µM; in the assay with HLA-A*33:01 (setting [2]), ≥ 77.7 µM; with HLA-A*68:01 (setting [2]), ≥ 58.4 µM.
The matching figures for DIVNEHDIK: ≥ 63.2 µM, ≥ 77.9 µM, ≥ 77.9 µM, ≥ 77.7 µM and 3.67 µM.
With DLDKVYEILK, the equilibrium dissociation constant (Kd) with HLA-A*03:01 (setting [2]) was 3.35 µM; with HLA-A*11:01 (setting [2]), 0.751 µM; in the assay with HLA-A*31:01 (setting [2]), 12 µM; with HLA-A*33:01 (setting [2]) it was ≥ 24.3 µM; with HLA-A*68:01 (setting [2]), 1.3 µM.
Turning to EFCVDHPFIY, the equilibrium dissociation constant (Kd) in the assay with HLA-A*03:01 (setting [2]) was ≥ 70.1 µM; with HLA-A*11:01 (setting [2]), 11 µM; with HLA-A*31:01 (setting [2]) it was ≥ 37.6 µM; with HLA-A*33:01 (setting [2]) it was ≥ 44.4 µM; in the assay with HLA-A*68:01 (setting [2]), ≥ 54.7 µM.
Consider FCNLSDAHK, for which the Kd with HLA-A*03:01 (setting [3]) was ≥ 36.2 µM; with HLA-A*11:01 (setting [3]), ≥ 51 µM; with HLA-A*31:01 (setting [3]), ≥ 77.9 µM; with HLA-A*33:01 (setting [3]), 4.33 µM; with HLA-A*68:01 (setting [3]), 1.05 µM.
Consider FISDNKKEYK, for which the Kd with HLA-A*03:01 (setting [2]) amounted to 1.88 µM; with HLA-A*11:01 (setting [2]), 0.0475 µM; in the assay with HLA-A*31:01 (setting [2]) it was 0.118 µM; with HLA-A*33:01 (setting [2]), 1.05 µM; with HLA-A*68:01 (setting [2]), 0.0113 µM.
With FMTLVPVLEK, the dissociation constant Kd stood at 0.0826 µM in the assay with HLA-A*03:01 (setting [2]); 0.00396 µM with HLA-A*11:01 (setting [2]); 0.0733 µM with HLA-A*31:01 (setting [2]); 0.02 µM with HLA-A*33:01 (setting [2]); 0.002 µM with HLA-A*68:01 (setting [2]).
The matching figures for FSPENKAFK: 6.25 µM, 5.02 µM, 6.71 µM, 3.92 µM and 0.133 µM.
The matching figures for GLFDFVNFVK: 0.000324 µM, 0.000911 µM, 0.0661 µM, 1.2 µM and 0.00736 µM.
As for GMSYYCKSHK, the Kd amounted to 0.02 µM with HLA-A*03:01 (setting [1]); 0.0913 µM with HLA-A*11:01 (setting [1]); 0.111 µM with HLA-A*31:01 (setting [1]); 9.96 µM with HLA-A*33:01 (setting [1]); 1.37 µM in the assay with HLA-A*68:01 (setting [1]).
On to GQRCHFIKK, for which the Kd with HLA-A*03:01 (setting [2]) was 0.0214 µM; with HLA-A*11:01 (setting [2]), 0.0134 µM; with HLA-A*31:01 (setting [2]), 0.062 µM; with HLA-A*33:01 (setting [2]), 13.2 µM; with HLA-A*68:01 (setting [2]), ≥ 25 µM.
Consider GTIAGGVCY, for which the Kd is 4.07 µM in the assay with HLA-A*03:01 (setting [2]); 0.0697 µM with HLA-A*11:01 (setting [2]); ≥ 62.6 µM in the assay with HLA-A*31:01 (setting [2]); ≥ 77.7 µM in the assay with HLA-A*33:01 (setting [2]); 7.9 µM with HLA-A*68:01 (setting [2]).
In the case of GVEDTESIER, the Kd with HLA-A*03:01 (setting [2]) was ≥ 70.1 µM; with HLA-A*11:01 (setting [2]), 0.948 µM; with HLA-A*31:01 (setting [2]) it was 1.93 µM; in the assay with HLA-A*33:01 (setting [2]), 0.673 µM; with HLA-A*68:01 (setting [2]) it was 1.84 µM.
HSYAGDAAEH: the equilibrium dissociation constant (Kd) with HLA-A*03:01 (setting [4]) was 1.48 µM; with HLA-A*11:01 (setting [4]) it was 17.7 µM; with HLA-A*31:01 (setting [4]), 2.96 µM; with HLA-A*33:01 (setting [4]), ≥ 48 µM; in the assay with HLA-A*68:01 (setting [4]), 0.578 µM.
In the case of IFYFISIYSR, the Kd with HLA-A*03:01 (setting [2]) came out at 0.175 µM; with HLA-A*11:01 (setting [2]), 4.18 µM; with HLA-A*31:01 (setting [2]), 0.00239 µM; with HLA-A*33:01 (setting [2]), 0.0762 µM; in the assay with HLA-A*68:01 (setting [2]) it was 0.0389 µM.
The corresponding values for IMVASDVCKK are 0.0169 µM, 0.0533 µM, 0.27 µM, 7.13 µM and 0.0744 µM.
The corresponding values for ISEKETLNEY are ≥ 70.1 µM, 3 µM, ≥ 45.8 µM, ≥ 55.6 µM and ≥ 35 µM.
Take ISLNSMYTR: the equilibrium dissociation constant (Kd) was determined as 6.1 µM with HLA-A*03:01 (setting [2]); 0.0374 µM with HLA-A*11:01 (setting [2]); 0.00462 µM with HLA-A*31:01 (setting [2]); 0.0856 µM in the assay with HLA-A*33:01 (setting [2]); 0.0133 µM in the assay with HLA-A*68:01 (setting [2]).
The matching figures for ISSVQLSNNK: 0.943 µM, 0.121 µM, 4.42 µM, 3 µM and 1.28 µM.
Take IVFVCVEYY: the Kd in the assay with HLA-A*03:01 (setting [1]) was determined as 0.0497 µM; with HLA-A*11:01 (setting [1]), 0.041 µM; with HLA-A*31:01 (setting [1]), 0.112 µM; with HLA-A*33:01 (setting [1]), 0.844 µM; with HLA-A*68:01 (setting [1]), 0.023 µM.
The corresponding values for IVNAANIHLK are 0.0511 µM, 0.104 µM, 2.23 µM, ≥ 70 µM and 0.0665 µM.
With KAIITPVVFY, the Kd was 7.47 µM with HLA-A*03:01 (setting [2]); 0.9 µM in the assay with HLA-A*11:01 (setting [2]); ≥ 70 µM in the assay with HLA-A*31:01 (setting [2]); ≥ 70 µM in the assay with HLA-A*33:01 (setting [2]); 6.7 µM with HLA-A*68:01 (setting [2]).

A word on the Kd: it is the free concentration of one partner at which half of the binding sites on the other are occupied at equilibrium, for simple one-to-one binding.

Source of the values: the Immune Epitope Database (IEDB).
